Experimental data reported in patent US20150160214A1, “Quantitation of Cellular Adhesion Dynamics Across Immobilized Receptors Under Rheological Shear Flow” (Mayo Foundation for Medical Education and Research, priority 2013, published 2015).

Columns and labels:
A1-1261 = biological target: T1, A1-1261 (Homo sapiens, UniProt P04275); assay: Binding of free N-terminal peptide to A1-1261 from thermal unfolding enthalpy (tryptophan fluorescence); settings: for Apparent TM of primary transition / Enthalpy of the unfolding transition ΔHT*‡: 2° Celsius/min
T1 construct: A1-1261 (amino acids D1261-P1471); made in house
Description: (§1) This would imply a specific interaction between this N-terminal sequence and the A1 domain when covalently linked in sequence. The only way to examine such a stabilization using spectroscopy was the measurement of thermal unfolding via fluorescence. Since the N-terminal peptide also contains a single tyrosine residue, the excitation wavelength was changed to λ=295 nm in order to measure tryptophan fluorescence and the effect of the peptide on the unfolding of the A1-domain was observed indirectly. Thermal scans of 2 μM A1-1261 were performed as a function of increasing amounts of the N-terminal peptide at 2° Celsius/min. […] Thermal scans were also done in the presence of a peptide with the same amino acid composition, but a scrambled sequence. The inset of FIG. 7A compares the raw fluorescence thermal scans in the presence of 300 μM scrambled and N-terminal peptides. Unfolding in the presence of excess scrambled peptide was equivalent to unfolding in the absence of either peptide. […] Fitting the enthalpy data to a simple single site binding model yields a dissociation constant of ≈46±6 μM.
(§2) Prior to all spectroscopic thermal scans, protein samples were equilibrated at 10° Celsius for 15 min to obtain a stable baseline. CD thermal scans between 10 and 95° Celsius were recorded at λ=222 nm using a protein concentration of 1 or 2 μM in a 1 cm quartz cell under moderate stirring. Scan rates were 0.5, 1.0, 1.5 and 2.0° Celsius/min. Integration time for each data point was 20 s with a 1 nm bandwidth. Fluorescence thermal scans between 10 and 95 Celsius were recorded at an emission λ=359 nm after excitation λ=280 nm or λ=295 nm using 2 μM protein in a 1 cm quartz cell with moderate stirring. Scan rates were 0.4 or 0.6, 0.9, 1.6 and 2.0° Celsius/min. At each temperature, relative fluorescence intensity was collected for 4 s and averaged. Thermal scans in the presence of N-terminal peptide at 2.0° Celsius/min were preceded by 1 h incubations at 20° Celsius with 0.02-300 μM peptide.
For the thermal unfolding studies in the presence of peptide, the inventor treated the change in enthalpy of unfolding, ΔHT*^‡ as an observable directly proportional to the degree of binding, X, because the T* was not dependent on peptide concentration.
For the simple single site binding model, A1+P<->A1P, where P is the peptide, the degree of binding is given by
where K is the binding affinity and the free peptide, [P], concentration is given in terms of the total protein, A1T, and peptide, PT, concentrations.

platelet GP1bα [1] = biological target: T2, platelet GP1bα (Homo sapiens, UniProt P04275); assay: Platelet pause times and translocation velocities on immobilized A1 under shear flow, parallel-plate flow chamber (Example 1); type: cell-based; settings: free peptide added
T2 construct: perfused at low shear to enable platelets to attach to the surface immobilized domains; endogenous in cells; host or cells: platelets in citrated whole blood of healthy donors
Description: (§3) To understand the effect of the N-terminal peptide on the function of the A1-domain of vWF, the protein was expressed with (A1-1238) and without the N-terminal peptide (A1-1261). The inventor used a flow chamber to measure the dynamics of platelet interactions with A1-1238 and A1-1261. Each domain variant was immobilized on glass slides with a modified Cu^2+ chelating chemistry that enabled surface capture via the N-terminally fused histidine tag. This method ensured reproducible capture of the proteins eliminating possible structural issues associated with nonspecific immobilization on plastic or glass. The slides were completely inert to platelets. Next, 1 mL of citrated whole blood followed by Tris buffered saline was perfused at low shear to enable platelets to attach to the surface immobilized domains. After red cells were perfused away with buffer, the translocation of the remaining attached platelets over the surfaces was recorded at each shear rate and the velocities and pause times calculated from the coordinate data of each platelet on the surface as described in the methods. […] In addition, the translocation velocities were increased for A1-1238 relative to A1-1261. To determine if this N-terminal sequence could inhibit the catch bond when free in solution, the inventor incubated surface immobilized A1-1261 with excess free peptide and added the free peptide to 1 mL of whole blood and to our perfusion buffer and performed the assay.
(§4) Determination of platelet pause times. Determination of platelet pause times A Glycotech† rectangular parallel-plate flow chamber was mounted to slides with a chelated Cu 21 surface obtained from Microsurfaces Inc. # to which the A1-1261 and A1-1238 domains in TBS were immobilized by the 63His-Tag. Citrated whole blood (1 mL) obtained from informed consent of healthy donors with approval from the Baylor College of Medicine institutional review board followed by buffer was perfused through the chamber at 300s21 for A1-1261 and 700s21 for A1-1238 shear rate to attach platelets to the surface immobilized proteins using a syringe driven variable flow rate pump. The shear was increased incrementally and 1 min movies were recorded at 25 frames/s in phase contrast with 232 pixel binning on a Zeiss Axiocam MRm camera attached to a Zeiss Axio Observer D1 inverted microscope. Tracking analysis was performed using Mediacybernetics ImagePro Premier§. The resulting X-Y coordinate data for each platelet track was differentiated into instantaneous velocities using a Savitzky-Golay algorithm (Savitzky:1964) with a five data point window size and a second-order polynomial implemented into a Mathamatica notebook. These platelet tracks were retained for statistical analysis if the platelet was present for at least 1 s and travelled a total distance greater than 1 lm. Distance travelled in pixels was converted to lm given the camera pixel size=6.45 μm^2, pixel binning, and microscope magnification=400×. Pause times were determined by the amount of time (seconds) a platelets velocity was =0±0.13 μm/s, within the noise. Pause times for all platelet tracks are reported as the mean of the medians. Examples of this analysis for individual platelets and for multiple platelets are provided in the Supporting Information.
(§5) Frame by frame platelet trajectory analysis. Tracking coordinates of individual platelets in units of pixels were exported from ImagePro Premier as a text file and imported into a Mathematica notebook that calculates a Savitzky-Golay first derivative of the total distance traveled over time (Savitzky:1964). The distance was calculated from the X and Y coordinates with the following equation.
(§6) Pause times were determined from the length of time the platelet velocity remained within 0±4 pixel/sec=0.129 μm/sec as illustrated in FIG. 8B. Median pause times were calculated from velocity time profiles for all platelet tracks, stored in a list and translated to histograms for multiple platelets. […]

[2] = biological target: T3, platelet GP1bα (Homo sapiens); assay: as above; type: cell-based; settings: 300 μM peptide incubated with immobilized A1-1261; 66 μM in whole blood and buffer
T3 construct: perfused at low shear to enable platelets to attach to the surface immobilized domains; endogenous in cells; host or cells: platelets in citrated whole blood of healthy donors
Description: as §3, §4, §5, §6

platelet GP1bα [3] = assay: as above; type: cell-based, human; settings: 5 μM protein immobilized; as a function of shear rate
Description: as §3, §4, §5, §6

[4] = Temperature-induced unfolding by fluorescence and CD, irreversible models (Example 1); type: physicochemical
Description: A1-1261 and A1-1238 were thermally unfolded using intrinsic protein tyrosine and tryptophan fluorescence with an excitation λ=280 nm and emission λ=359 nm and CD monitored at λ=222 nm. […] As the scan rate increases, the midpoint of the transition (apparent TM) also increases.
Thermal transitions were analyzed in terms of the observed midpoint of the transition, apparent TM, and also by a two-state irreversible model or a three-state irreversible model as described in the Supplement and the calculated parameters are summarized in FIGS. 5A to 5D. […] If the protein unfolding was at equilibrium and reversible, this apparent TM would remain constant at all scan rates. Extrapolation of the TM to a scan rate of 0° Celsius/min provides an indication of where reversible unfolding would occur under equilibrium conditions; 50° Celsius for A1-1238 and 48° Celsius for A1-1261 from both CD and fluorescence data. For the second transition observed by fluorescence that occurs with A1-1238, the TM extrapolates to about 73° Celsius in the limit of zero scan rate. Analysis by the two-state and three-state irreversible models yields an R^2>0.99 for both fluorescence and CD and a transition temperature, T*, that is independent of the temperature scan rate. In addition, the enthalpies of the transitions are independent of scan rate within experimental error FIG. 5B. FIGS. 5C and 5D show the resulting average T* and ΔHT*^‡±the standard deviation obtained from the fitting of the primary thermal transitions in FIG. 4A to 4D for CD and fluorescence and a total average for both methods. […] However, the unfolding enthalpy was statistically larger for A1-1238 (250±15 kJ/mol) than for A1-1261 (204±10 kJ/mol). The average T* and ΔHT*^‡ observed in the second fluorescence transition of A1-1238 is 89.1±2.2° Celsius and 360±14 kJ/mol.
as §2
For an irreversible two-state transition, unfolding is kinetically controlled by a first order rate constant that varies with temperature according to the Arrhenius equation (Atkins:1994). In our analysis the inventor refers to the intermediate state as the final irreversible state for all thermal transitions involving the unfolding of A1-1261 in the absence of peptide when monitored by fluoresence, CD and DSC and for A1-1238 when monitored by CD and DSC. The following equations derived below are equally valid for any two state irreversible transitions The activation energy in going from N->I is ΔG^‡=−RT ln k^‡ and the inventor expands ln k^‡ as a function of temperature in terms of Δβ=(β−β*)=(1/RT−1/RT*) using a Taylor series, where T̂* is the temperature at which ΔG^‡=0.

[5] = biological target: T4, Recombinant human vWF A1-1261 (amino acids D1261-P1471), N-terminal truncated variant (human, UniProt P04275 1261-1471); assay: thermal unfolding of 2 µM A1-1261, tryptophan fluorescence at 359 nm (excitation 295 nm)
T4 construct: Lacks the linker residues Q1238-E1260; also called truncated A1
Description: as §1, with “indirectly.” for “indirectly. Thermal scans of 2 μM A1-1261 were performed as a function of increasing amounts of the N-terminal peptide at 2° Celsius/min.”

[6] = A1-1261 in presence of free N-terminal peptide

QLPTGVLGEPSDAVPTVYEVTPPG (SEQ ID NO.:2) [scrambled peptide, reference compound]
Effect of peptide on unfolding enthalpy of A1-1261 (A1-1261; saturating peptide concentrations): did not change the unfolding enthalpy | Effect of free peptide on platelet pause times or translocation velocities on immobilized A1-1238 (platelet GP1bα [1]): did not significantly change the pause times or translocation velocities | Effect of free peptide on platelet pause times on immobilized A1-1261 [2]: did not significantly change the pause times or translocation velocities

A1-1261: N-terminal truncated recombinant human vWF A1 domain, amino acids D1261-P1471, with N-terminal 6×His-Tag
Apparent TM of primary transition (A1-1261; 2 μM A1-1261, absence of peptide, excitation 295 nm): 53 ° Celsius | Enthalpy of the unfolding transition ΔHT*‡ (A1-1261; 2 μM A1-1261, low end of N-terminal peptide titration): ≈ 197 kJ/mol | Enthalpy of the unfolding transition ΔHT*‡ (A1-1261; 2 μM A1-1261, saturating N-terminal peptide): ≈ 242 kJ/mol | Apparent TM of primary transition (A1-1261; 2 μM A1-1261, saturating concentrations of N-terminal peptide): 55.5 ° Celsius | Platelet pause times on immobilized domain (comparison) (platelet GP1bα [3]): longer pause times than A1-1238 | Average T*, peptide-induced second fluorescence transition [4, 6]: 90.1±8.5 ° Celsius | Average ΔHT*‡, peptide-induced second fluorescence transition [4, 6]: 33.9 ± 8.87 kcal/mol | Apparent TM extrapolated to a scan rate of 0° Celsius/min, primary transition ([4]; CD and fluorescence data): 48 ° Celsius | Transition temperature T*, primary unfolding transition ([4]; average of CD and fluorescence): 64.5±0.9 ° Celsius | Unfolding enthalpy ΔHT*‡, primary unfolding transition ([4]; average of CD and fluorescence): 48.8 ± 2.39 kcal/mol

B1: scrambled peptide (QLPTGVLGEPSDAVPTVYEVTPPG) (peptide)
peptide: H-QLPTGVLGEPSDAVPTVYEVTPPG-OH
notes: Synthetic control peptide, said to have the same amino acid composition as the N-terminal peptide in scrambled order
binding result [5]: no binding (tested: 300 µM)
